For the assay, the target named is 14-3-3 protein gamma (UniProt P61982). Put plainly: peptide bead pull-down, label-free MS. To be noted: reference: unphosphorylated peptide; sites T426.

On to “Septin 7 (Sept7) C-terminal tail peptide C-terminal tail, 416-438 (from UniProt Q16181) pT426 peptide”, for which the “binding against the reference” value is on record as “stronger”.

Values taken from publication PMC9114808.
